Columns and labels:
Assay in all cases: FACS cell binding
C1.861.hu51 = target: C1.861.hu51
C1.831.hu31 = target: C1.831.hu31
C1.844.hu31 = target: C1.844.hu31
C1.861.hu31 = target: C1.861.hu31
C1.844.hu41 = target: C1.844.hu41

B1: C6.cC1 (other)
chain: MALRGFCSADGSDPLWDWNVTWYTSNPDFTKCFQNTVLVWVPCFYLWACFPFYFLYLSRHDRGYIQMTLLNKTKTALGFLLWIVCWADLFYSFWERSRGIFLAPVFLVSPTLLGITMLLATFLIQLERRKGVQSSGIMLTFWLVALLCALAILRSKIMTALKEDVQVDLFRDMTFYVYFSLVLIQLVLSCFSDRSPLFSETIHDPNPCPESSASFLSRITFWWITGLIVRGYRQPLEGSDLWSLNKEDTSEQVVPVLVKNWKKECAKTRKQPVKVVYSSKDPAQPKDSSKVDANEEVEALIVKSPQKEWNPSLFKVLYKTFGPYFLMSFFFKAIHDLMMFSGPEILKLLINFVNDTKAPDWQGYFYTALLFVAACLQTLVLHQYFHICFVSGMRIKTAVIGAVYRKALVITNAARKSSTVGEIVNLMSVDAQRFMDLATYINMIWSAPLQVILALYLLWRNLGPPILAGVAVMVLMVPVNAVMAMKTKTYQVAHMKSKDNRIKLMNEILNGIKVLKLYAWELAFKDKVLAIRQEELKVLKKSAYLAAVGTFTWVCTPFLVALCTFAVYVTIDKNNVLDAQKAFVSLALFNILRFPLNILPMVISSIVQASVSLKRLRIFLSHEELEPDSIERRPVKDGGDTNSITVRNATFTWARSDPPTLNGITFSIPEGALVAVVGQVGCGKSSLLSALLAEMDKVEGHVALKGSVAYVPQQAWIQNDSLQENILFGCQLEEPYYRSVIQACALLPDLEILPSGDRTEIGEKGVNLSGGQKQRVSLARAVYCNADIYLFDDPLSAVDAHVGKHIFENVIGPKGMLKNKTRILVTHSMSYLPQVDVIIVMSGGKISEMGSYQELLARDGAFAEFLRTYASAEQEQDPEDNGVTGVSGPGKEAKQMENGMLVTDSAGKQLQRQLSSSSSYSGDVSRQHNSTAELQKDGAKKEETWKLMEADKAQTGQVKLSVYWDYMKAIGLFISFLSIFLFICNHVAALASNYWLSLWTDDPIVNGTQEHTKVRLSVYGALGISQGIAVFGYSMAVSIGGILASRCLHVDLLHSILRSPMSFFERTPSGNLVNRFSKELDTVDSMIPEVIKMFMGSLFNVIGACIVILLATPIAAIIIPPLGLIYFFVQRFYVASSRQLKRLESVSRSPVYSHFNETLLGVSVIRAFEEQERFIHQSDLKVDENQKAYYPSIVANRWLAVRLECVGNCIVLFAALFAVISRHSLSAGLVGLSVSYSLQVTTYLNWLVRMSSEMETNIVAVERLKEYSETEKEAPWQIQETAPPSNWPQVGRVEFRNYCLRYREDLDFVLRHINVTINGGEKVGIVGRTGAGKSSLTLGLFRINESAEGEIIIDGINIARIGLHDLRFKITIIPQDPVLFSGSLRMNLDPFSQYSDEEVWTSLELAHLKGFVSALPDKLDHECAEGGENLSVGQRQLVCLARALLRKTKILVLDEATAAVDLETDDLIQSTIRTQFEDCTVLTIAHRLNTIMDYTRVIVLDKGEIQEYGAPSDLLQQRGLFYNMARDAGLV
C1.861.hu51
  Kd: 125 nM
C1.831.hu31
  Kd: 1070 nM
C1.844.hu31
  Kd: 253 nM
C1.861.hu31
  Kd: 110 nM
C1.844.hu41
  Kd: 107 nM

Source: patent publication US20230272117A1 (published 2023)
